Data published in US20150150960A1, “PROTECTION AGAINST DENGUE VIRUS AND PREVENTION OF SEVERE DENGUE DISEASE” (priority 2010, published 2015).

Tests used:
[1] = biological target: NS2B1383-1391 / HLA A*0201 (DENV2 strain S221; human)
[2] = biological target: NS4A2140-2148 / HLA A*0201 (DENV2 strain S221; human)
[3] = biological target: E631-639 / HLA A*0201 (DENV2 strain S221; human)
[4] = biological target: NS32013-2022 / HLA A*0201 (DENV2 strain S221; human)
[5] = biological target: NS31681-1689 / HLA A*0201 (DENV2 strain S221; human)
[6] = biological target: NS53058-3066 / HLA A*0201 (DENV2 strain S221; human)
[7] = biological target: NS31465-1473 / HLA A*0201 (DENV2 strain S221; human)
[8] = biological target: NS4B2280-2289 / HLA B*0702 (DENV2 strain S221; human)
[9] = biological target: purified HLA B*0702 molecules (human); test: inhibition of radiolabeled probe peptide binding to purified HLA
[10] = biological target: NS31863-1871 / HLA A*1101 (DENV2 strain S221; human)
[11] = biological target: NS31509-1517 / HLA A*1101 (DENV2 strain S221; human)
[12] = biological target: NS53079-3087 / HLA A*1101 (DENV2 strain S221; human)
[13] = biological target: NS53283-3291 / HLA A*1101 (DENV2 strain S221; human)
[14] = biological target: NS4A2074-2083 / HLA A*1101 (DENV2 strain S221; human)
[15] = biological target: NS31608-1617 / HLA A*1101 (DENV2 strain S221; human)
[16] = biological target: NS4B2315-2323 / HLA A*1101 (DENV2 strain S221; human)
[17] = biological target: NS2A1199-1213 / HLA DRB1*0101 (DENV2 strain S221; human)
[18] = biological target: C53-67 / HLA DRB1*0101 (DENV2 strain S221; human)
[19] = biological target: NS52966-2980 / HLA DRB1*0101 (DENV2 strain S221; human)
[20] = biological target: NS2B1356-1370 / HLA DRB1*0101 (DENV2 strain S221; human)
[21] = biological target: NS31742-1756 / HLA DRB1*0101 (DENV2 strain S221; human)

## splenic CD8+ T cells of DENV2 (S221)-infected HLA A*0201 transgenic IFN-α/βR-/- mice (cells without a defined receptor)
[1]
  T cell responses [SFC] mouse (IFNγ ELISPOT): 519 SFC
[2]
  T cell responses [SFC] mouse (IFNγ ELISPOT): 384 SFC
[3]
  T cell responses [SFC] mouse (IFNγ ELISPOT): 265 SFC
[4]
  T cell responses [SFC] mouse (IFNγ ELISPOT): 417 SFC
[5]
  T cell responses [SFC] mouse (IFNγ ELISPOT): 299 SFC
[6]
  T cell responses [SFC] mouse (IFNγ ELISPOT): 353 SFC
[7]
  T cell responses [SFC] mouse (IFNγ ELISPOT): 207 SFC

## splenic CD8+ T cells of DENV2 (S221)-infected HLA B*0702 transgenic IFN-α/βR+/+ mice (cells without a defined receptor)
[8]
  IFNγ ELISPOT (SFC/10^6 CD8+ T cells): 50

## NS4B2296-2305 (peptide)
[9]
  IC50: > 1000 nM

## splenic CD8+ T cells of DENV2 (S221)-infected HLA A*1101 transgenic IFN-α/βR-/- mice (cells without a defined receptor)
[10]
  T cell responses [SFC] mouse (IFNγ ELISPOT): 208 SFC
[11]
  T cell responses [SFC] mouse (IFNγ ELISPOT): 436 SFC
[12]
  T cell responses [SFC] mouse (IFNγ ELISPOT): 105 SFC
[13]
  T cell responses [SFC] mouse (IFNγ ELISPOT): 358 SFC
[14]
  T cell responses [SFC] mouse (IFNγ ELISPOT): 148 SFC
[15]
  T cell responses [SFC] mouse (IFNγ ELISPOT): 1000 SFC
[16]
  T cell responses [SFC] mouse (IFNγ ELISPOT): 712 SFC

## splenic CD4+ T cells of DENV2 (S221)-infected HLA DRB1*0101 transgenic IFN-α/βR-/- mice (cells without a defined receptor)
[17]
  T cell responses [SFC] mouse (IFNγ ELISPOT): 764 SFC
[18]
  T cell responses [SFC] mouse (IFNγ ELISPOT): 77 SFC
[19]
  T cell responses [SFC] mouse (IFNγ ELISPOT): 851 SFC
[20]
  T cell responses [SFC] mouse (IFNγ ELISPOT): 65 SFC
[21]
  T cell responses [SFC] mouse (IFNγ ELISPOT): 448 SFC
